How the values were obtained:
[1] = target: T1, ztf-29 (Y66D12A.12) (Caenorhabditis elegans) (UniProt Q95Q03)
T1 sequence: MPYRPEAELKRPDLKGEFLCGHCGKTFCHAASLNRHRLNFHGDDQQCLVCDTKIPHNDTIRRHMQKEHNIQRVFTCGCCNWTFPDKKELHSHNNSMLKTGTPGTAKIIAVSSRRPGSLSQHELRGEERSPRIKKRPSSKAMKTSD

[2] = target: T2, Y53H1A.2 (Y53H1A.2) (Caenorhabditis elegans) (UniProt B1V8K4)
T2 sequence: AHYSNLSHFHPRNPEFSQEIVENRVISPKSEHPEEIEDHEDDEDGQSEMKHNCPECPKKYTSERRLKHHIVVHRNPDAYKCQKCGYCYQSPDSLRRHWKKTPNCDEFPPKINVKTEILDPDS

[3] = target: T3, ztf-6 (W06H12.1) (Caenorhabditis elegans) (UniProt G5EC77)
T3 sequence: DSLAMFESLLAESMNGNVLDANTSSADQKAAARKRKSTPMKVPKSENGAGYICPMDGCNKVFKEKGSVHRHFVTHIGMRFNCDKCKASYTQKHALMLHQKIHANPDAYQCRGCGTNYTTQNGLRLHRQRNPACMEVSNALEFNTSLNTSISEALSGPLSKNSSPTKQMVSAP

[4] = target: T4, C27D6.4 (C27D6.4) (Caenorhabditis elegans) (UniProt Q4JFH9)
T4 sequence: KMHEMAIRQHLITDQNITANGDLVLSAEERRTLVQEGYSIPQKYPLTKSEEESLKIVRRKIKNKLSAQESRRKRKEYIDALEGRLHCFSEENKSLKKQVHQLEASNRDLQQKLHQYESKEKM

[5] = target: T5, ZK337.2 (ZK337.2) (Caenorhabditis elegans) (UniProt O46016)
T5 sequence: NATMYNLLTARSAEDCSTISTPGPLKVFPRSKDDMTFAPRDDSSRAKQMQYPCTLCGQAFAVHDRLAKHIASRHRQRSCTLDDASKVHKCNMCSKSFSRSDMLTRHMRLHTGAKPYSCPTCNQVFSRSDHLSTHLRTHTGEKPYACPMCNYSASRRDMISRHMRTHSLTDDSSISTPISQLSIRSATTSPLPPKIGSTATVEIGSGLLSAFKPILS

[6] = tested on: T6, syd-9 (ZK867.1) (Caenorhabditis elegans)
T6 sequence: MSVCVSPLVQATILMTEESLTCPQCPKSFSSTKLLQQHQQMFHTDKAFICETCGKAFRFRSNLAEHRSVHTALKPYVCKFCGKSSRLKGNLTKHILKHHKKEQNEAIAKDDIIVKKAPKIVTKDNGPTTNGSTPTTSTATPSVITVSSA

[7] = target: T7, egrh-3 (Y94H6A.11) (Caenorhabditis elegans) (UniProt U4PLQ8)
T7 sequence: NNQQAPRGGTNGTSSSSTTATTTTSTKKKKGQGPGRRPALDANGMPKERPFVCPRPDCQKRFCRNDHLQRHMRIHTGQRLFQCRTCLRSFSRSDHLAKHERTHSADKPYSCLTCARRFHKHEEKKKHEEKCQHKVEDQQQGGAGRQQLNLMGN

[8] = target: ZC328.2 (ZC328.2) (Caenorhabditis elegans) (UniProt O02050)
Sequence of ZC328.2 (ZC328.2) (Caenorhabditis elegans) (O02050 entry or part of it): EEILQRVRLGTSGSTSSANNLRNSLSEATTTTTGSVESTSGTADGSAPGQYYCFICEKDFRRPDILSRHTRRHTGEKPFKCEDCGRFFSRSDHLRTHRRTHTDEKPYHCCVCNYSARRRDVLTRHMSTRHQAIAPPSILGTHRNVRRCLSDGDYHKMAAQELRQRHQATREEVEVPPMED

Q: Which binding signal (PBM E-score (-0.5 to 0.5)) [1] does the source give for “AAAAGCTT (double strand) [8-mer AAAAGCTT]” here?
A: 0.492

Q: “CCACCACC (double strand) [8-mer CCACCACC]” was tested. Which binding signal (PBM E-score (-0.5 to 0.5)) [2] did it give?
A: 0.486

Q: “TCTGAAAA (double strand) [8-mer TCTGAAAA]” was tested. Which binding signal (PBM E-score (-0.5 to 0.5)) [3] did it give?
A: 0.492

Q: How did the binding signal (PBM E-score (-0.5 to 0.5)) [4] turn out when “GACGTGGC (double strand) [8-mer GACGTGGC]” was run?
A: 0.494

Q: How did the binding signal (PBM E-score (-0.5 to 0.5)) [3] turn out when “ATTTCAGC (double strand) [8-mer ATTTCAGC]” was run?
A: 0.492

Q: For “GCTGAAAA (double strand) [8-mer GCTGAAAA]”, which binding signal (PBM E-score (-0.5 to 0.5)) [3] is on record?
A: 0.492

Q: “ACGTGGCG (double strand) [8-mer ACGTGGCG]” was tested. Which binding signal (PBM E-score (-0.5 to 0.5)) [4] did it give?
A: 0.498

Q: With “CCACCCCC (double strand) [8-mer CCACCCCC]” as the sequence, how does the binding signal (PBM E-score (-0.5 to 0.5)) [5] read?
A: 0.485

Q: Which binding signal (PBM E-score (-0.5 to 0.5)) [3] does the source give for “GGCTGAAA (double strand) [8-mer GGCTGAAA]” here?
A: 0.491

Q: Which binding signal (PBM E-score (-0.5 to 0.5)) [6] does the source give for “GACTGTAC (double strand) [8-mer GACTGTAC]” here?
A: 0.49

Q: “GGGGGGAA (double strand) [8-mer GGGGGGAA]” was tested. Which binding signal (PBM E-score (-0.5 to 0.5)) [7] did it give?
A: 0.493

Q: Which binding signal (PBM E-score (-0.5 to 0.5)) [3] does the source give for “GTCTGAAA (double strand) [8-mer GTCTGAAA]” here?
A: 0.495

Q: “CGGCCGCC (double strand) [8-mer CGGCCGCC]” was tested. Which binding signal (PBM E-score (-0.5 to 0.5)) [2] did it give?
A: 0.489

Q: For “AACTGTAC (double strand) [8-mer AACTGTAC]”, which binding signal (PBM E-score (-0.5 to 0.5)) [6] is on record?
A: 0.492

Q: How did the binding signal (PBM E-score (-0.5 to 0.5)) [4] turn out when “ACGTGTCA (double strand) [8-mer ACGTGTCA]” was run?
A: 0.495

Q: “ACCACCGC (double strand) [8-mer ACCACCGC]” was tested. Which binding signal (PBM E-score (-0.5 to 0.5)) [2] did it give?
A: 0.483

Q: How did the binding signal (PBM E-score (-0.5 to 0.5)) [2] turn out when “CGCCCACC (double strand) [8-mer CGCCCACC]” was run?
A: 0.484

Q: What about the binding signal (PBM E-score (-0.5 to 0.5)) [8] of the same sequence?
A: 0.484

Q: With “CCCCCCAC (double strand) [8-mer CCCCCCAC]” as the sequence, how does the binding signal (PBM E-score (-0.5 to 0.5)) [7] read?
A: 0.495

Q: How did the binding signal (PBM E-score (-0.5 to 0.5)) [7] turn out when “AAGGGGGG (double strand) [8-mer AAGGGGGG]” was run?
A: 0.495

Q: How did the binding signal (PBM E-score (-0.5 to 0.5)) [5] turn out when “CGCCCACA (double strand) [8-mer CGCCCACA]” was run?
A: 0.484

Q: How did the binding signal (PBM E-score (-0.5 to 0.5)) [2] turn out when “CGGCCGGC (double strand) [8-mer CGGCCGGC]” was run?
A: 0.486

Q: For “GTTTCAGA (double strand) [8-mer GTTTCAGA]”, which binding signal (PBM E-score (-0.5 to 0.5)) [3] is on record?
A: 0.494

Q: For “CGCTGAAA (double strand) [8-mer CGCTGAAA]”, which binding signal (PBM E-score (-0.5 to 0.5)) [3] is on record?
A: 0.49

Q: Which binding signal (PBM E-score (-0.5 to 0.5)) [8] does the source give for “CCCCACGC (double strand) [8-mer CCCCACGC]” here?
A: 0.485

Q: How did the binding signal (PBM E-score (-0.5 to 0.5)) [4] turn out when “CACGTGTA (double strand) [8-mer CACGTGTA]” was run?
A: 0.494

Q: Which binding signal (PBM E-score (-0.5 to 0.5)) [5] does the source give for “CCACCCAC (double strand) [8-mer CCACCCAC]” here?
A: 0.491

Q: With “ATTTTCAG (double strand) [8-mer ATTTTCAG]” as the sequence, how does the binding signal (PBM E-score (-0.5 to 0.5)) [3] read?
A: 0.493

Q: How did the binding signal (PBM E-score (-0.5 to 0.5)) [7] turn out when “CCCCCCCA (double strand) [8-mer CCCCCCCA]” was run?
A: 0.496

Q: How did the binding signal (PBM E-score (-0.5 to 0.5)) [6] turn out when “ACTGTACG (double strand) [8-mer ACTGTACG]” was run?
A: 0.491

Q: For “ACACGTGG (double strand) [8-mer ACACGTGG]”, which binding signal (PBM E-score (-0.5 to 0.5)) [4] is on record?
A: 0.498

Q: For “CGGTGGGC (double strand) [8-mer CGGTGGGC]”, which binding signal (PBM E-score (-0.5 to 0.5)) [2] is on record?
A: 0.491

Q: “AAGCTTGT (double strand) [8-mer AAGCTTGT]” was tested. Which binding signal (PBM E-score (-0.5 to 0.5)) [1] did it give?
A: 0.489

Q: Which binding signal (PBM E-score (-0.5 to 0.5)) [4] does the source give for “CACGTGGA (double strand) [8-mer CACGTGGA]” here?
A: 0.495

Q: For “CCGCCTAC (double strand) [8-mer CCGCCTAC]”, which binding signal (PBM E-score (-0.5 to 0.5)) [8] is on record?
A: 0.488

Q: For “GGTGGGCA (double strand) [8-mer GGTGGGCA]”, which binding signal (PBM E-score (-0.5 to 0.5)) [2] is on record?
A: 0.487

Q: “GCGGCCGC (double strand) [8-mer GCGGCCGC]” was tested. Which binding signal (PBM E-score (-0.5 to 0.5)) [2] did it give?
A: 0.488

Q: For “TGCTGAAA (double strand) [8-mer TGCTGAAA]”, which binding signal (PBM E-score (-0.5 to 0.5)) [3] is on record?
A: 0.494

Q: How did the binding signal (PBM E-score (-0.5 to 0.5)) [3] turn out when “ATTTCAGA (double strand) [8-mer ATTTCAGA]” was run?
A: 0.491

Q: Which binding signal (PBM E-score (-0.5 to 0.5)) [2] does the source give for “CGACCACC (double strand) [8-mer CGACCACC]” here?
A: 0.486

Q: With “GCCCCCGC (double strand) [8-mer GCCCCCGC]” as the sequence, how does the binding signal (PBM E-score (-0.5 to 0.5)) [5] read?
A: 0.489
